These results are taken from a protein production outcome set (Wang et al. 2014).

The series can be described thus: label from the status in PepcDB records.

With “MYYVYVAGYILLAAAMQLFTGNFPVSFLAFPLNIIFAAIWLFLLWILYKEYNNLRITRFLGSSKASVLSISLFIGGCLIIGLFPQLSEPEAEMRKGISASLGCYNFMTSWIFISILLLLLSNLAMITIHACRHRKQARWRFILNHTGLWLALFAGFLGSSDTQTLRIPLYKGEPKHEAFDMNGASYYLDYDMELNSFAVEYYPNGRPSRFSANVRLGNENVLLEVNHPYSYRLGEDVYLTGYDVTKGNESNYCILQVVKQPWKYVMVAGILMMLAGAVLLFINGAKAYDKLG”, the protein production entry is given as “failed”.
The entry for “NALHIINMVGTRNATDYGKHICVSFLQELQMLCPDVLVVSGLAYGIDINAHRSALSVELPTVGVLAHGLDRIYPSLHRKTAIDMLRQGGLLTEFLSGTNPDKHNFISRNRIVAGISDATIVVESAAKGGSLITADIAGSYHRDCFAFPGR” is “failed”; for “NAMVLREDIDKLKLLAQQFEQELQAYNTRIGNLETRIAYLEDRQFSVTTKLTGDSIWVLSGVGGSEQADGPPDQPVQNGEVTVNFRQRINFNTSFSGEDNLLIRLQSANFFLARGGSNLTDFNFAATEEQGNVNINKMQYSFPVGDRARIWLAGNRITMDDIMDPLAPYTNSFTDGAVSFFGAIAPIYLPNDNSGPGAGFSYNFTDDLSLGGFYSAGKGFSPNQSEGLFNGQFGVGAQLNYVPAANTGVAFSYLHNYIPQGQYDSFSALGYTGLANTDNPFDDAASSTNHYAVIWTWQLADWFSLEGWGMYSDATAKSGDRQGDTADIWNWKVSLAFPDLGKEGNVGVVSVGQPPYASFISNNNNVPDITPATTDAPWFVETFYLYQFNDNISLTPAFWIGINPANGRDPLWVAALRTSFKF” it is “failed”; for “NANDQAIAYVMLGNKAQTVLNGNLKVDFMETENSSSVKKQKALVAKVSQREEMVKKCLGELTEVCKSLGKVFGVHYFNIFNTVTLKKLAESLSSDPEVLLQIDGVTEDKLEKYGAEVISVLQKYSEWTSPAED” it is “failed”.
The entry for “NANLDPKTRVLEHRLLAASSAIAEKLGVSAGDEVLLIRRLRSTGDIPVAILENYLPPAFNDVSLDELEKGGLYDALRSRGVVLKIANQKIGARRAVGEESTLLDIEDGGPLLTVERVALDNSGQVIELGSHCYRPDMYN” is “failed”; for “NDTELPTYRVVSRLSLDDLIETIDEDLDREIEFSEEILDQVDTVGGLIAFEKGRIPLPGTTVTTSGLQLQAEGGRDRRGRIQVRSVLVSVLPVESLSEL” it is “failed”; for “NIESIENLQGIRALQQQAPQLLSSGLPNEQQFSLLKQAGVDVVINLMPDSSKDAHPDEGKLVTQAGMDYVYIPVDWQNPKVEDVEAFFAAMDQHKGKDVLVHCLANYRASAFAYLYQLKQGQNPNMAQTMTPWNDELAIYPKWQALLTEVSAKYGH” it is “not failed”.
The entry for “NILKIRCAPVTWPIGMGKNFKGVYHILNDEIYLFEAGGERLPHEFDIIKGIDNPELEQRFPLEIQQLRDEIELVQAASNEFNLDEFLAGELTPVFFGSAINNFGIQEILNSLIDWAPAPKPRDATVRMVEPDEPKFSGFIFKIQANMDPKHRDRIAFLRVCSGKFERGMKMKHLRINREIAASSVVTFMSHDRELVEEAYAGDIIGIPNHGNIQIGDSFSEGEQLAFTGIPFFAPELFRSVRIKNPLKIKQLQKGLQQLGEEGAVQVFKPMSGADLILGAVGVLQFEVVTSRLANEYGVEAVFDSASIWSARWVSCDDKKKLAEFEKANAGNLAIDAGGNLAYLAPNRVNLGLTQERWPDIVFHETREHSVKL” is “failed”; for “NILSLLLHPRLGAVIQQMLEMPGHAWTVESLASIAHMSRASFAQLFRDVSGTTPLAVLTKLRLQIAAQMFSRETLPVVVIAESVGYASESSFHKAFVREFGCTPGEYRERVRQLA” it is “not failed”; for “NKDNLDLAGLTSLLSEKIKEFLQEKKMQSFYQQELETVESLQSLASRPVTHSTGSDQVELKDSGTSGVAQRVFKNALQLLQEKGLVFQRDSGSDKLYYVTTKDKDLQ” it is “not failed”.
Turning to “NKELNELNIIKLTRMMYYGQLLHYLSIGLTLVMTYSCNLRCPYCYEGDIKSKGGLLTREKIETILTFASAHAQGDKKPTISVSFYGGEPLLNWKGCEYTLQRLEEMKENKEIRDYSAGFVTNGTLINEDIVDAINNYNVYSMQITLDGPKEIHDKRRIKSNGEGTFDQIIENIKLLNRRIANKNFHLALRINVDKTNYKKIPELLDFLKDEGLGGIPISYGIVRGNLPYCSSNCGVYFSGSDLQKYLPYLWKEAYRRGFEVWTRPNL”, the protein production result is reported as “failed”.
For “NLMKRCTRGFRKLGKCTTLEEEKCKTLYPRGQCTCSDSKMNTHSCDCKSC” the value was “not failed”.
The entry for “NQLSGLHSMEEQLAKKLQIKKCLVVQGDSDDTPWVREEMGRVAVEQLDMALTEKRNIVAVMGGSTMATVAEMMTTDFAKGRELLFVPGRGGIGEDLDNQANTICDKMATKTNTKHRVLYVPEQLGEEAYRSLLKEPAIQEGLRLVQSANAIILGIGDALAMAKRRHTGEDVLEKIIRRKAVGEAFGYYFDEQGEVVHKVPTFGLQFEDLAQIPHIIAVAGGTSKAKAIKSYMKSAPKNTILITDEGAAKSLLK” is “not failed”; for “NSVNCDELGPLPPGWEVRSTVSGRIYFVDHNNRTTQFTDPRLHHIMNHQCQLKEPSQPLPLPS” it is “failed”.
As to “PAGVMIADAASGKLVLTNEQAKQILRYQFEDSLELKEYAPVTPFAAFRCDGQPYDPYEYPLPRSLLTGEVISQEEMLLRWEDNSHIFISVNSAPILDSQGQIAAAAIVFQDVTERKHLESELQQREQEFKMVAENAP”, the protein production result is on record as “failed”.
In the case of “PAKWKRGRPDILHVALLTTTDSPLYNEGLLRIYFQVYDGRLFEVGTGVRVPKNYERFRGLVAQLLKTERVPPGEGEALIRLHSRSLAEFVEREGRFILMWEKGSPTTTTYVAARALSTGLPIGVGCFPRGEFKRSTLRKASEAYSIMGGAPLKTWGVASRIVYALER”, the protein production entry was “failed”.
For “PCYENKFAPRCARCSKTLTQGGVTYRDQPWHRECLVCTGCQTPLAGQQFTSRDEDPYCVACFGELFA”, the protein production result is “not failed”.
The entry for “PDAARKAQILWCQPDRAKAWTDWMRKGKFPVGGSICDNPVAETTSLGEQFGFNGTPTLVFPNGRSQSGYSPMPQLEEIIRKNQ” is “not failed”; for “PDTIIAVDRDHRIIYVNRAMPGHKKTLAVGDHLCDHIMQPYHDRYHHTIERVIVTGKTAVLECELVVSPEETIELESRFAPCFLNGEVTSVVMLSVDITERKGMELELKKTLIDLERFNRVMVGRELRNIELKKRIASLQNDLVLSSGNAQASDDSRQDFATEDEDCAGIHHGDGFEEACDEVQYRKQQRMALLNLIEDANLARNELLETNRKLEESVIRTQEMARAASKANEAKSQFLANMSHEVRTPMNGVIGMSDLLLDTS” it is “failed”.
The entry for “PEQIWAKQQKDGSWLMDALIPLNELKYKLGLTTIEGEESEGFQTLNGFLTWWLGRLPHAGELVDYEGWQFEVLNVKHHRIVQVKVSRET” is “failed”; for “PFKESQARGLLQDNMANGYNGEDFESGLLELSKEIFPTNKYLYQDGQYLDKKTINAYLDPKYTKKEIDKMSEKEKKSKNANENLGLNPSHNGETDEEKIAKNSPAYLSNILEQDFYGNSDSKGKNIKGMTIGLAMNSVYYYKKEKDGETFSKDLSDKEIEKQGKQMASEMLSRLRENSDLKDIPIHFAIYKQSSQDSITPGEFIVGTTVEEGKTKINSWDNINEKAALIPSSTAADYDETLNNNFKQFNDNLQSYFSNFTQAVGKVKFVNKKAKQLTVDLPIDYYGQAETIGITQYVTEQAEKYFDKLDEYEIRIKDGNTPRALISKTKDDKEPQVHIYHN” it is “not failed”; for “PGQVIGLFGGSFDPPHAGHVHVTREALKMFGLDRVWWLVTPGNPLKAHGPAPLDRRMEAARAMMRHPRVDVTDIEAHLGTRVTADTIAALRRIYPRVRFVWLMGADNLAQLHRWKDWRQIIETVPVGVLARPGDRISARMSPAARAYAPYRIDGQARHLLGRAEAPAWCFVNVPMVDVSSTRIRAAGGWSAAQQGR” it is “failed”.
For “PINVRVTTMDAELEFAIQPNTTGKQLFDQVVKTVGLREVWFFGLQYVDSKGYSTWLKLNKKVTQQDVKKENPLQFKFRAK” the value was “failed”.
Take PKQRCRAPACDHFGNAKCNGYCNECFQFKQMYG: the protein production entry is recorded as “not failed”.
For “PLADTRFLQRRRALSAQLAAKRIDAMLVTHLTHIRYLSGFTGSNAALIINKDLSARISTDGRYITQIAEQVPDIESLMARNCAPALLSDINGPKRVGFEADYLSVSQCEELRKSAGSDVELIPVTGAIEKLR” the value was “not failed”.
Take “PLTTHNMNSSTSNKVALNAAREGIVLLKNQGDLLPLDKQKVKKIAVVGTLAKYAPPTGFGSANVMASHYVSELSGLQQMAPNAKVEFIDGLSLDPSTSAWNTTDAAGNSVQGMKVEYFSNTNWSGDAAVTRTEQHVDLDWANDKNLPFESNTSTSDPYTTKGSTAGELNGDTSSTSIRYTGKITPTQSGEQVFKVRADGAVRLWVNGKKIIDNGDGKPLPGNSIPPTIPEFAKINLEAGQSYDVKLEYSRRAGYLSTMGGLVGVQLSSASLNAPQDLSGYDAVVVAVGNSNEYEGEGFDHSFDLPEFQNELIQNIAKVNPNTVVTMYGGTGLKMSDWIEQVPVALHAFYPGQNGGQALAEILFGKINPSGKLPISIERNIEDNPAYASFPKFDNQNTLAEMDYKDDLMLGYRGYEKKGIKPLYPFGYGL”: the protein production entry is listed as “failed”.
“PNFEKMKKEVEEILYNLKKEGGKYHCILAFSGGKDSVLALKLLKEKFKLNPLCVMVDNKYMAKEAIENALNVTKHYQVDLMILNRDYTDLFEDAIKRGESPCRRCSRLILREVWRVTKLLGLKYIITGHELP”: the protein production entry is “not failed”.
Take “PNFSHWGPPRIVEIFREPNVSLGISIVGGQTVIKRLKNGEELKGIFIKQVLEDSPAGKTNALKTGDKILEVSGVDLQNASHSEAVEAIKNAGNPVVFIVQSLSSTPRVIP”: the protein production result is “not failed”.
The entry for “PNILYKIDNQYPYFTKNEKKIAQFILNYPHKVVNMTSQEIANQLETSSTSIIRLSKKVTPGGFNELKTRLSKFLPKEVTQYNVELVDNESTISLKNKLHSRSKAAL” is “not failed”.
“PRLYKEPSAKSNKFIIHNALSHCCLAGKVNEPQKNRILEEIEKSKANHFLILFRDSSCQFRALYTLSGETEELSRLAGYGPRTVTPAMVEGIYKYNSDRKRFTQIPAKTMSMSVDAFTIQGHLWQSKK”: the protein production result is “not failed”.
For “PRRWPILLIFPGSGFIQMTEREAEPIALAFSAQGYQTMVVEYNLLDRGPVYPNAIDVGLTALKYAKNQGPPHYGDANKTILMGFSAGSHVAALTNAMGNNTEYLKTHGFGDSPLTSRLQVLGYPVIDLAAGFPKSREEAFKISPDEQYWASQNLVTDQTPPTFLWNTCADAVVPTMNSLLYAEALARHHVEYDIHTFTHGKHGLCLSTVETSRYNYPEDIEPRAANWVPLVLSWLSEMLD”, the protein production result is given as “failed”.
The entry for “PSKKYVVDIWSDFVCPWCWIAKRRFENALNRSGMQDDVQVNVRAYRLAANQAPEPMIGALKRKLGNPASADSMMSTVSKYGRADGLDYRFDTMMFGDTADAHILVKAVEDTAVKKRLVEALYEQSTSHGRSLFDRSSLEAIAREVGVSDESIQLAWSSVELRNEMKDDESFAAQLGSGVPLFVFDSSFSVSGAQPDAVFLEALNKMVANSNPE” is “not failed”; for “PSVQVPQSTILYASDGSKLGETNYGEKRYWVPLKDMNPTIVKATVAIEDQNFYDHHGFDYKRMAGAALADLKAFAKVQGASTITQQYARNLYLEHDKTWKRKWNEAFYTIRLEQNYSKDEILEGYLNTIYYGHGAYGIEAASRLYFGKHAKNLTDAEAALLAGIPKGPSGY” it is “failed”.
